Starred links: 1 amine or outer side, 2 acyl side, 3 side chain; linkers in the order of their positions; H or OH if unused. Non-standard residues stand in square brackets, D forms with d. Groups on a side chain read outwards from the residue. No end group written: not given here. *: point of attachment. C20 diacid = O=C(O)CCCCCCCCCCCCCCCCCCC(=O)*; C18 diacid = O=C(O)CCCCCCCCCCCCCCCCC(=O)*; γGlu = O=C(O)[C@H](CCC(=O)[*:2])N[*:1]; αMeF = C[C@](N)(Cc1ccccc1)C(=O)O; AEEA = NCCOCCOCC(=O)O; Aib = CC(C)(N)C(=O)O
Tests used:
human GLP-1 receptor = human GLP-1 receptor (human, UniProt P43220); experiment: cell-based or functional assay
human glucagon receptor = human glucagon receptor (human, UniProt P47871); experiment: cell-based or functional assay

| cAMP production EC50 (human GLP-1 receptor) | cAMP production EC50 (human glucagon receptor) | Binder |
| --- | --- | --- |
| 212 pM | 374 pM | H[Aib]QGTFTSDVSK[αMeF]LDTK([AEEA-AEEA-γGlu-C20 diacid])RARDFVRWLL[Aib]TE-OH (N-terminus assumed; SMILES CC(C)C[C@H](NC(=O)[C@H](Cc1c[nH]c2ccccc12)NC(=O)[C@H](CCCNC(=N)N)NC(=O)[C@@H](NC(=O)[C@H](Cc1ccccc1)NC(=O)[C@H](CC(=O)O)NC(=O)[C@H](CCCNC(=N)N)NC(=O)[C@H](C)NC(=O)[C@H](CCCNC(=N)N)NC(=O)[C@H](CCCCNC(=O)COCCOCCNC(=O)COCCOCCNC(=O)CC[C@H](NC(=O)CCCCCCCCCCCCCCCCCCC(=O)O)C(=O)O)NC(=O)[C@@H](NC(=O)[C@H](CC(=O)O)NC(=O)[C@H](CC(C)C)NC(=O)[C@](C)(Cc1ccccc1)NC(=O)[C@H](CCCCN)NC(=O)[C@H](CO)NC(=O)[C@@H](NC(=O)[C@H](CC(=O)O)NC(=O)[C@H](CO)NC(=O)[C@@H](NC(=O)[C@H](Cc1ccccc1)NC(=O)[C@@H](NC(=O)CNC(=O)[C@H](CCC(N)=O)NC(=O)C(C)(C)NC(=O)[C@@H](N)Cc1c[nH]cn1)[C@@H](C)O)[C@@H](C)O)C(C)C)[C@@H](C)O)C(C)C)C(=O)N[C@@H](CC(C)C)C(=O)NC(C)(C)C(=O)N[C@H](C(=O)N[C@@H](CCC(=O)O)C(=O)O)[C@@H](C)O) [Peptide 492] |
| 98.7 pM | 212 pM | H[Aib]QGTFTSDVSK[αMeF]LDTK([AEEA-AEEA-γGlu-C20 diacid])RAQDFVRWLLR[Aib]K-OH [Peptide 494] |
| 23.4 pM | 166 pM | H[Aib]QGTFTSDVSK[αMeF]LDTK([AEEA-AEEA-γGlu-C18 diacid])RAQDFVRWLLR[Aib]K-OH (N-terminus assumed; SMILES CC(C)C[C@H](NC(=O)[C@H](Cc1c[nH]c2ccccc12)NC(=O)[C@H](CCCNC(=N)N)NC(=O)[C@@H](NC(=O)[C@H](Cc1ccccc1)NC(=O)[C@H](CC(=O)O)NC(=O)[C@H](CCC(N)=O)NC(=O)[C@H](C)NC(=O)[C@H](CCCNC(=N)N)NC(=O)[C@H](CCCCNC(=O)COCCOCCNC(=O)COCCOCCNC(=O)CC[C@H](NC(=O)CCCCCCCCCCCCCCCCC(=O)O)C(=O)O)NC(=O)[C@@H](NC(=O)[C@H](CC(=O)O)NC(=O)[C@H](CC(C)C)NC(=O)[C@](C)(Cc1ccccc1)NC(=O)[C@H](CCCCN)NC(=O)[C@H](CO)NC(=O)[C@@H](NC(=O)[C@H](CC(=O)O)NC(=O)[C@H](CO)NC(=O)[C@@H](NC(=O)[C@H](Cc1ccccc1)NC(=O)[C@@H](NC(=O)CNC(=O)[C@H](CCC(N)=O)NC(=O)C(C)(C)NC(=O)[C@@H](N)Cc1c[nH]cn1)[C@@H](C)O)[C@@H](C)O)C(C)C)[C@@H](C)O)C(C)C)C(=O)N[C@@H](CC(C)C)C(=O)N[C@@H](CCCNC(=N)N)C(=O)NC(C)(C)C(=O)N[C@@H](CCCCN)C(=O)O) [Peptide 493] |
| 69 pM | 396 pM | H[Aib]QGTFTSDVSK[αMeF]LDTK([AEEA-AEEA-γGlu-C20 diacid])RARDFVQWLL[Aib]TE-NH2 (N-terminus assumed; SMILES CC(C)C[C@H](NC(=O)[C@H](Cc1c[nH]c2ccccc12)NC(=O)[C@H](CCC(N)=O)NC(=O)[C@@H](NC(=O)[C@H](Cc1ccccc1)NC(=O)[C@H](CC(=O)O)NC(=O)[C@H](CCCNC(=N)N)NC(=O)[C@H](C)NC(=O)[C@H](CCCNC(=N)N)NC(=O)[C@H](CCCCNC(=O)COCCOCCNC(=O)COCCOCCNC(=O)CC[C@H](NC(=O)CCCCCCCCCCCCCCCCCCC(=O)O)C(=O)O)NC(=O)[C@@H](NC(=O)[C@H](CC(=O)O)NC(=O)[C@H](CC(C)C)NC(=O)[C@](C)(Cc1ccccc1)NC(=O)[C@H](CCCCN)NC(=O)[C@H](CO)NC(=O)[C@@H](NC(=O)[C@H](CC(=O)O)NC(=O)[C@H](CO)NC(=O)[C@@H](NC(=O)[C@H](Cc1ccccc1)NC(=O)[C@@H](NC(=O)CNC(=O)[C@H](CCC(N)=O)NC(=O)C(C)(C)NC(=O)[C@@H](N)Cc1c[nH]cn1)[C@@H](C)O)[C@@H](C)O)C(C)C)[C@@H](C)O)C(C)C)C(=O)N[C@@H](CC(C)C)C(=O)NC(C)(C)C(=O)N[C@H](C(=O)N[C@@H](CCC(=O)O)C(N)=O)[C@@H](C)O) [Peptide 490] |
| 202 pM | 301 pM | H[Aib]QGTFTSDVSK[αMeF]LDTK([AEEA-AEEA-γGlu-C20 diacid])RARDFVQWLL[Aib]TE-OH (N-terminus assumed; SMILES CC(C)C[C@H](NC(=O)[C@H](Cc1c[nH]c2ccccc12)NC(=O)[C@H](CCC(N)=O)NC(=O)[C@@H](NC(=O)[C@H](Cc1ccccc1)NC(=O)[C@H](CC(=O)O)NC(=O)[C@H](CCCNC(=N)N)NC(=O)[C@H](C)NC(=O)[C@H](CCCNC(=N)N)NC(=O)[C@H](CCCCNC(=O)COCCOCCNC(=O)COCCOCCNC(=O)CC[C@H](NC(=O)CCCCCCCCCCCCCCCCCCC(=O)O)C(=O)O)NC(=O)[C@@H](NC(=O)[C@H](CC(=O)O)NC(=O)[C@H](CC(C)C)NC(=O)[C@](C)(Cc1ccccc1)NC(=O)[C@H](CCCCN)NC(=O)[C@H](CO)NC(=O)[C@@H](NC(=O)[C@H](CC(=O)O)NC(=O)[C@H](CO)NC(=O)[C@@H](NC(=O)[C@H](Cc1ccccc1)NC(=O)[C@@H](NC(=O)CNC(=O)[C@H](CCC(N)=O)NC(=O)C(C)(C)NC(=O)[C@@H](N)Cc1c[nH]cn1)[C@@H](C)O)[C@@H](C)O)C(C)C)[C@@H](C)O)C(C)C)C(=O)N[C@@H](CC(C)C)C(=O)NC(C)(C)C(=O)N[C@H](C(=O)N[C@@H](CCC(=O)O)C(=O)O)[C@@H](C)O) [Peptide 488] |
| 73.6 pM | 232 pM | H[Aib]QGTFTSDVSK[αMeF]LDTK([AEEA-AEEA-γGlu-C18 diacid])RARDFVRWLL[Aib]TE-OH (N-terminus assumed; SMILES CC(C)C[C@H](NC(=O)[C@H](Cc1c[nH]c2ccccc12)NC(=O)[C@H](CCCNC(=N)N)NC(=O)[C@@H](NC(=O)[C@H](Cc1ccccc1)NC(=O)[C@H](CC(=O)O)NC(=O)[C@H](CCCNC(=N)N)NC(=O)[C@H](C)NC(=O)[C@H](CCCNC(=N)N)NC(=O)[C@H](CCCCNC(=O)COCCOCCNC(=O)COCCOCCNC(=O)CC[C@H](NC(=O)CCCCCCCCCCCCCCCCC(=O)O)C(=O)O)NC(=O)[C@@H](NC(=O)[C@H](CC(=O)O)NC(=O)[C@H](CC(C)C)NC(=O)[C@](C)(Cc1ccccc1)NC(=O)[C@H](CCCCN)NC(=O)[C@H](CO)NC(=O)[C@@H](NC(=O)[C@H](CC(=O)O)NC(=O)[C@H](CO)NC(=O)[C@@H](NC(=O)[C@H](Cc1ccccc1)NC(=O)[C@@H](NC(=O)CNC(=O)[C@H](CCC(N)=O)NC(=O)C(C)(C)NC(=O)[C@@H](N)Cc1c[nH]cn1)[C@@H](C)O)[C@@H](C)O)C(C)C)[C@@H](C)O)C(C)C)C(=O)N[C@@H](CC(C)C)C(=O)NC(C)(C)C(=O)N[C@H](C(=O)N[C@@H](CCC(=O)O)C(=O)O)[C@@H](C)O) [Peptide 491] |
| 65.5 pM | 164 pM | H[Aib]QGTFTSDVSK[αMeF]LDTK([AEEA-AEEA-γGlu-C18 diacid])RARDFVQWLL[Aib]TE-OH (N-terminus assumed; SMILES CC(C)C[C@H](NC(=O)[C@H](Cc1c[nH]c2ccccc12)NC(=O)[C@H](CCC(N)=O)NC(=O)[C@@H](NC(=O)[C@H](Cc1ccccc1)NC(=O)[C@H](CC(=O)O)NC(=O)[C@H](CCCNC(=N)N)NC(=O)[C@H](C)NC(=O)[C@H](CCCNC(=N)N)NC(=O)[C@H](CCCCNC(=O)COCCOCCNC(=O)COCCOCCNC(=O)CC[C@H](NC(=O)CCCCCCCCCCCCCCCCC(=O)O)C(=O)O)NC(=O)[C@@H](NC(=O)[C@H](CC(=O)O)NC(=O)[C@H](CC(C)C)NC(=O)[C@](C)(Cc1ccccc1)NC(=O)[C@H](CCCCN)NC(=O)[C@H](CO)NC(=O)[C@@H](NC(=O)[C@H](CC(=O)O)NC(=O)[C@H](CO)NC(=O)[C@@H](NC(=O)[C@H](Cc1ccccc1)NC(=O)[C@@H](NC(=O)CNC(=O)[C@H](CCC(N)=O)NC(=O)C(C)(C)NC(=O)[C@@H](N)Cc1c[nH]cn1)[C@@H](C)O)[C@@H](C)O)C(C)C)[C@@H](C)O)C(C)C)C(=O)N[C@@H](CC(C)C)C(=O)NC(C)(C)C(=O)N[C@H](C(=O)N[C@@H](CCC(=O)O)C(=O)O)[C@@H](C)O) [Peptide 487] |
| 23.2 pM | 380 pM | H[Aib]QGTFTSDVSK[αMeF]LDTK([AEEA-AEEA-γGlu-C18 diacid])RAQDFVRWLLR[Aib]K-NH2 (N-terminus assumed; SMILES CC(C)C[C@H](NC(=O)[C@H](Cc1c[nH]c2ccccc12)NC(=O)[C@H](CCCNC(=N)N)NC(=O)[C@@H](NC(=O)[C@H](Cc1ccccc1)NC(=O)[C@H](CC(=O)O)NC(=O)[C@H](CCC(N)=O)NC(=O)[C@H](C)NC(=O)[C@H](CCCNC(=N)N)NC(=O)[C@H](CCCCNC(=O)COCCOCCNC(=O)COCCOCCNC(=O)CC[C@H](NC(=O)CCCCCCCCCCCCCCCCC(=O)O)C(=O)O)NC(=O)[C@@H](NC(=O)[C@H](CC(=O)O)NC(=O)[C@H](CC(C)C)NC(=O)[C@](C)(Cc1ccccc1)NC(=O)[C@H](CCCCN)NC(=O)[C@H](CO)NC(=O)[C@@H](NC(=O)[C@H](CC(=O)O)NC(=O)[C@H](CO)NC(=O)[C@@H](NC(=O)[C@H](Cc1ccccc1)NC(=O)[C@@H](NC(=O)CNC(=O)[C@H](CCC(N)=O)NC(=O)C(C)(C)NC(=O)[C@@H](N)Cc1c[nH]cn1)[C@@H](C)O)[C@@H](C)O)C(C)C)[C@@H](C)O)C(C)C)C(=O)N[C@@H](CC(C)C)C(=O)N[C@@H](CCCNC(=N)N)C(=O)NC(C)(C)C(=O)N[C@@H](CCCCN)C(N)=O) [Peptide 495] |
